Data set [1] deals with T1, SRA-Spacer (human, UniProt Q96T88 414-674).
T1 sequence: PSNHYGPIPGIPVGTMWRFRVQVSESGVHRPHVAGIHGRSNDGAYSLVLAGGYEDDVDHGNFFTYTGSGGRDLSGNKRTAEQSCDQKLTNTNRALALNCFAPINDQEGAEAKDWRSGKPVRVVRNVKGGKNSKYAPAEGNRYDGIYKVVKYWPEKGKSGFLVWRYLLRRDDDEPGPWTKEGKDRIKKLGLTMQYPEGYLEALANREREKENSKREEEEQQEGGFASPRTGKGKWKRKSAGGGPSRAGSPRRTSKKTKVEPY
In words: FP; 150 mM NaCl; ITC: 10 mM HEPES pH 8.0, 100 mM NaCl, 18 C; EMSA: 20 mM HEPES pH 7.5, 100 mM NaCl, 8% glycerol, 1 mM DTT, on ice; pull-down: 20 mM HEPES-NaOH pH 8.0, 100 mM NaC.

Data set [2] deals with T2, SRA (human, UniProt Q96T88 414-617).
T2 sequence: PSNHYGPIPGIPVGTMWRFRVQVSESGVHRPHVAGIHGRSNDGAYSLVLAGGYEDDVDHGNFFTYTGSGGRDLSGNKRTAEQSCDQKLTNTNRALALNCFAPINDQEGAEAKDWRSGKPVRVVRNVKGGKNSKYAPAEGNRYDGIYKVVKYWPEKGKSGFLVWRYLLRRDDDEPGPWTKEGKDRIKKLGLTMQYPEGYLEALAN
Description: FP; 50 mM NaCl; ITC: 10 mM HEPES pH 8.0, 100 mM NaCl, 18 C; EMSA: 20 mM HEPES pH 7.5, 100 mM NaCl, 8% glycerol, 1 mM DTT, on ice; pull-down: 20 mM HEPES-NaOH pH 8.0, 100 mM NaC. (In general: Mobility shift assays separate free from complexed probe on a gel.)

The target of data set [3] is T1, SRA-Spacer. The data set is described as above.
Data set [4] deals with T1, SRA-Spacer. In words: FP; DNA length series; ITC: 10 mM HEPES pH 8.0, 100 mM NaCl, 18 C; EMSA: 20 mM HEPES pH 7.5, 100 mM NaCl, 8% glycerol, 1 mM DTT, on ice; pull-down: 20 mM HEPES-NaOH pH 8.0, 100 mM NaC.
Data set [5] has as its target T3, SRA-Spacer-661 (human, UniProt Q96T88 414-661).
T3 sequence: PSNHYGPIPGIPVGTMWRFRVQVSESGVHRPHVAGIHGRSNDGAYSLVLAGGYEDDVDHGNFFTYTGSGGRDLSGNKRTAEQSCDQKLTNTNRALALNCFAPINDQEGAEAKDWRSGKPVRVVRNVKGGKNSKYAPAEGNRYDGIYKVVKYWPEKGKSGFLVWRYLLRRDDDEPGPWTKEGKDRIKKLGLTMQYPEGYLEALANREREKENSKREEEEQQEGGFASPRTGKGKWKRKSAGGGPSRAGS
In words: FP; ITC: 10 mM HEPES pH 8.0, 100 mM NaCl, 18 C; EMSA: 20 mM HEPES pH 7.5, 100 mM NaCl, 8% glycerol, 1 mM DTT, on ice; pull-down: 20 mM HEPES-NaOH pH 8.0, 100 mM NaC.

Data set [6] addresses T1, SRA-Spacer. The description is as above.
Data set [7] concerns the target T4, UHRF1 delta627-674 (human, UniProt Q96T88 1-793, del627-674).
T4 sequence: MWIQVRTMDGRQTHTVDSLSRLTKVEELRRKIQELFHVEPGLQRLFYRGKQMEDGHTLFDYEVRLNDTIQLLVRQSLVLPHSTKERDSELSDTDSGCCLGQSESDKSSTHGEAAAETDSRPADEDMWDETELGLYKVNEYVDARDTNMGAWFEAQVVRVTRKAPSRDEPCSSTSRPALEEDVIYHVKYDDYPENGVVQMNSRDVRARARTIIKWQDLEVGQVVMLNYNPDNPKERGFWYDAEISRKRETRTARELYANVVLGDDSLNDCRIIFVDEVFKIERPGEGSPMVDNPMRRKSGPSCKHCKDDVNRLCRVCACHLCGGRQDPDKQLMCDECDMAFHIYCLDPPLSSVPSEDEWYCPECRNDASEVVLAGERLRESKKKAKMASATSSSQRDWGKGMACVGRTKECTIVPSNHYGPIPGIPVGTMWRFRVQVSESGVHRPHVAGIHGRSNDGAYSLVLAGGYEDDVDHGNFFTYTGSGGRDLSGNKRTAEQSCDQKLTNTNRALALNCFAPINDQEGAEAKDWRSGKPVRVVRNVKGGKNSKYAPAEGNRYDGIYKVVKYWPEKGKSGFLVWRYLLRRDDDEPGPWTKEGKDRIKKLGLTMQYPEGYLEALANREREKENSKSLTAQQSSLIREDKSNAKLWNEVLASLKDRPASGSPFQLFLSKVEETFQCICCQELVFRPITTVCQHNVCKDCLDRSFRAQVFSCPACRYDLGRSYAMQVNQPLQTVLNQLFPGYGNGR
Described as above.

One molecule from publication PMC4822050 can be followed below.

B1: FAM-12bp-HM-DNA (dsDNA)
DNA 1: CCATGCGCTGAC
DNA 2: GTCAGCGCATGG
modifications: 5-methyl-dC at position 6 of strand 2 (GTCAGXGCATGG)
As for B1, the Kd stood at 580 ± 98 nM in data set [1]; 150 ± 18 nM in data set [2]; 24 ± 3.7 nM in data set [3]; 340 ± 90 nM in data set [4]; 380 ± 60 nM in data set [5]; 490 ± 80 nM in data set [6]. Further, in data set [7], the equilibrium dissociation constant (Kd) was 4940 ± 1090 nM.

One may read the Kd as the equilibrium constant for the complex coming apart. Lower therefore signals higher affinity.
